Test results from PMC4476070.
Like-named read-outs stand apart in the source and are kept apart here.

Assays:
SUMO-DMRT1 67-136 [1] = molecular target: T1, SUMO-DMRT1 67-136 (Homo sapiens, UniProt Q9Y5R6 67-136); assay: EMSA
DMRT1 full-length [2] = molecular target: T2, DMRT1 full-length (Homo sapiens, UniProt Q9Y5R6 1-373); assay: EMSA
[3] = molecular target: T3, DMRT1 full-length;DMRT1 R111G (Homo sapiens;Homo sapiens, UniProt Q9Y5R6;Q9Y5R6 1-373;1-373, |R111G); assay: EMSA
DMRT1 full-length [4] = molecular target: T2, DMRT1 full-length; assay: EMSA; remark: listed apart in the source
DMRT1 full-length [5] = molecular target: T2, DMRT1 full-length; assay: EMSA; remark: listed apart in the source
[6] = molecular target: T3, DMRT1 full-length;DMRT1 R111G; assay: EMSA; remark: listed apart in the source
SUMO-DMRT1 67-136 [7] = molecular target: T1, SUMO-DMRT1 67-136; assay: EMSA; remark: listed apart in the source
DMRT1 R123A = DMRT1 R123A (Homo sapiens, UniProt Q9Y5R6 1-373, R123A); assay: EMSA
Chain of DMRT1 R123A (Q9Y5R6 whole entry R123A): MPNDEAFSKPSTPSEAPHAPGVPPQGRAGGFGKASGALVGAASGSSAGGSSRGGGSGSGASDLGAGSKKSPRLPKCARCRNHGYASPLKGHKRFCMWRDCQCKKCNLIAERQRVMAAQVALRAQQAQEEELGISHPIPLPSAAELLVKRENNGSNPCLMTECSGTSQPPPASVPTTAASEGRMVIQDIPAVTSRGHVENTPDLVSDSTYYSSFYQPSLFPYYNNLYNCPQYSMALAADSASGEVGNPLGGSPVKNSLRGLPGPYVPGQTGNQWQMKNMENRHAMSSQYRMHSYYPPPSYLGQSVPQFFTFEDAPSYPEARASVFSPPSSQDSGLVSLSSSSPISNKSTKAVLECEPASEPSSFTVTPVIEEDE

DMRT1 R123Q = DMRT1 R123Q (Homo sapiens, UniProt Q9Y5R6 1-373, R123Q); assay: EMSA
Chain of DMRT1 R123Q (Q9Y5R6 whole entry R123Q): as the sequence (Q9Y5R6 whole entry R123A) above, with A123Q counted along it

DMRT1 67-136 = DMRT1 67-136 (Homo sapiens, UniProt Q9Y5R6 67-136); assay: X-ray crystallography
Chain of DMRT1 67-136 (Q9Y5R6 67-136): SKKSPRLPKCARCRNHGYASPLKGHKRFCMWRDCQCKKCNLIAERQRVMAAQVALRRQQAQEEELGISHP

T2 sequence (Q9Y5R6 whole entry): as the sequence (Q9Y5R6 whole entry R123A) above, with A123R counted along it
T3 sequence (Q9Y5R6 whole entry, stated change not applied, chain 1 of 2): as the sequence (Q9Y5R6 whole entry R123A) above, with A123R counted along it
T3 sequence (Q9Y5R6 whole entry R111G, chain 2 of 2): as the sequence (Q9Y5R6 whole entry R123A) above, with R111G, A123R counted along it
T1 sequence (Q9Y5R6 67-136): as the sequence (Q9Y5R6 67-136) above

B1: Site 4 (27 bp) (dsDNA)
DNA 1: TTGCTATGATACATTGTATCTTGCTGG
DNA 2: CCAGCAAGATACAATGTATCATAGCAA
SUMO-DMRT1 67-136 [1]
  binding result: binds

B2: Site 3 (27 bp) (dsDNA)
DNA 1: GAGATTTGATACATTATTAATTTATGG
DNA 2: CCATAAATTAATAATGTATCAAATCTC
DMRT1 full-length [2]
  binding result: binds

B3: Sox9 site (dsDNA)
DNA 1: GTGGCTGGGCACCCTGCAGAGACAATGTTTCCAGCTGCAGGTCAGGTCT
DNA 2: AGACCTGACCTGCAGCTGGAAACATTGTCTCTGCAGGGTGCCCAGCCAC
[3]
  binding result: binds
DMRT1 full-length [4]
  binding result: binds

B4: Site 2 (27 bp) (dsDNA)
DNA 1: GAGATTTGATACATTGTTACTTTATGG
DNA 2: CCATAAAGTAACAATGTATCAAATCTC
DMRT1 full-length [5]
  binding result: binds

B5: Site 1 (27 bp) (dsDNA)
DNA 1: GAGATTTGATACATTGTTGCTCGATGG
DNA 2: CCATCGAGCAACAATGTATCAAATCTC
[6]
  binding result: binds
SUMO-DMRT1 67-136 [7]
  binding result: binds
DMRT1 full-length [4]
  binding result: binds

B6: Site 1 (49 bp) (dsDNA)
DNA 1: GTGGCTGGGCAGAGATTTGATACATTGTTGCTCGATGGAGGTCAGGTCT
DNA 2: AGACCTGACCTCCATCGAGCAACAATGTATCAAATCTCTGCCCAGCCAC
DMRT1 R123A
  binding result: no binding
DMRT1 R123Q
  binding result: no binding

B7: Site 1 crystal 25-mer (dsDNA)
DNA 1: CGAGATTTGATACATTGTTGCTCGA
DNA 2: TCGAGCAACAATGTATCAAATCTCG
DMRT1 67-136
  binding result: binds
